Assay results published in publication PMC5035970.

Columns and labels:
[1] = test system: H132R (HIV-1 / Rous sarcoma virus chimera); test: FA salt titration
[2] = test system: R155H (Rous sarcoma virus (Prague C) / HIV-1 chimera); test: FA salt titration
[3] = test system: HIV-1 Gag∆p6 (HIV-1); test: FA salt titration
[4] = test system: RSV Gag∆PR (Rous sarcoma virus, Prague C strain); test: FA salt titration
[5] = test system: RSV Gag∆PR (Rous sarcoma virus, Prague C strain); test: fluorescence anisotropy
[6] = test system: RSV CANC (Rous sarcoma virus, Prague C strain); test: FA salt titration
[7] = test system: H132R (HIV-1 / Rous sarcoma virus chimera); test: fluorescence anisotropy
[8] = test system: HIV-1 Gag∆p6 (HIV-1); test: fluorescence anisotropy

Substance | Kd [1] | Kd [2] | Kd [3] | Kd [4] | Kd [5] | Kd [6] | Kd [7] | Kd [8]
HIV-1 TARpolyA | 290 mM | 2600 mM | 560 mM | 40 mM | 18 nM |  |  | 
RSV MΨ WT | 0.072 mM | 0.067 mM | 0.055 mM | 0.071 mM |  | 0.013 mM | 13 nM | 14 nM
HIV-1 Ψ-WT | 19 mM | 0.031 mM | 0.036 mM | 32 mM | 14 nM |  |  | 
RSV MΨ A197G |  |  |  | 0.047 mM |  |  |  | 
RSV MΨ UGCG to GAGA |  |  |  | 0.012 mM |  |  |  | 
RSV MΨ GG to CC |  |  |  | 0.49 mM |  |  |  | 
